The text below walks through data of patent US7271245B2, “Methods and compositions for inhibition of metastasis” (The Scripps Research Institute, priority 2004, dated 2007).

Data set [1] has as its target T1, tumor cell integrin αvβ3 (Homo sapiens, UniProt P05106+P06756).
T1 construct: Primary metastatic cells from blood samples of stage IV breast cancer patients (BCM1, BCM2, BMS) were isolated; endogenous in cells; host or cells: BMS cells (primary metastatic breast cancer cells from patient blood)
The data set can be described thus: Flow cytometry, scFv binding to BMS cells in fresh human plasma. To be noted: saturable binding. On the procedure: FIG. 4. Patient derived ligand mimetic scFvs Bc-12 and Bc-15 against activated αvβ3 are internalized and bind to breast cancer cells in human plasma and affect breast cancer survival. Flow cytometric analysis with human metastatic breast cancer cells (BMS) isolated from a patient blood sample. All binding and washing steps were done in fresh human plasma prepared from blood anticoagulated with 50 nM PPACK.
Flow cytometry. scFv binding to human tumor cells was analyzed by flow cytometry, initially with cloned scFv phage and then with purified scFv protein. Per sample, 2×10^5 tumor cells were blocked with goat serum and incubated either with scFv phage (2-5×10^10) (1 h at RT) followed by mouse anti-M13 mAb (Serotec) (30 min on ice) and goat FITC-anti mouse (Pierce) (30 min on ice), or with purified scFv (1.25 to 40 μg/ml, routinely 10 to 15 μg/ml) (45 min on ice), followed by mouse anti-FLAG mAb M2 (Sigma) (30 min on ice) and goat FITC-anti mouse. […] All samples were counter stained with propidium iodide (PI) and analyzed on a Becton-Dickinson FACScan, with live gate set to exclude PI positive cells.
Antimetastatic activity of scFv antibodies against activated αvβ3 inhibit hematogenous breast cancer metastasis in vivo. […] The antibodies bound the cells in a saturable manner with half maximal binding measured at 40 nM scFv (1 μg/ml) (FIG. 4).
On the technique in general: In flow cytometry, cells or beads pass a laser one at a time.

Data set [2] concerns BMS human breast cancer cells. In words: Experimental metastasis in vivo (lung colonization). Details: species or system mouse. On the procedure:
FIGS. 5A, 5B, 5C. ScFvs Bc-12 and Bc-15 prevent hematogenous breast cancer metastasis. (A) Left: Lungs of female SCID mice 32 days after i.v. injection with 1×10^5 BMS human breast cancer cells. The mice were treated with 50 μg Bc-12 or Bc-15 in 100 μl PBS (i.v.) on days 1, 2, 3 and 4. Controls received PBS only. Right: Numbers of lung surface metastases for each animal, horizontal lines indicate the median number of metastases per group. […] (B) Left: Histological sections of the above mouse lungs, stained with hematoxylin/eosin. Metastases were counted in six sets of three consecutive sections separated by 140 μm for each lung. Right: Number of metastases counted in sections of individual lungs, horizontal lines indicate median number of metastases per animal group. […] (C) Effect of Bc-15 treatment on established breast cancer metastasis in the lungs. Female SCID mice were injected i.v. with 5×10^5 DsRed2-tagged MDA-MB 435 breast cancer cells expressing constitutively activated integrin αvβ3D723R. Mice were treated on day 7, 9, 11 and 14, 16, 18 by i.v. injections of scFv Bc-15 or its RGE mutant, Mut-15 (40 μg/dose). Metastatic foci were enumerated by fluorescence microscopy on day 19. Left: Images of typical tumor foci within the lung tissue in Mut-15 (top) or Bc-15 treated mice (bottom) (bar: 50 μm). Right: Number of metastatic foci within the lung tissue of each animal, horizontal line: median number of metastases per group.
Experimental metastasis in vivo. 1×10^5 BMS human metastatic breast cancer cells were injected into the lateral tail veins of 9 week old female C.B17/lcrTac-Prkdc scid mice (Taconic Farms) (n=8 to 10) together with a 50 μg bolus dose of scFv. I.v. Injections of 50 μg scFv bolus doses were repeated on days 2, 3 and 4 of the experiment. Control animals received vehicle only (PBS). For in vivo use, endotoxin was removed from scFv preparations on Detoxy-Gel resin (Pierce). Remaining traces ranged from 0.001 to 0.07 EU endotoxin/mg scFv (LAL test, Bio Whittaker). On day 32, mice were euthanized, dissected, the lungs excised, fixed in Bouin's solution, and metastatic foci counted at the lung surface under a dissecting microscope. The same lungs were embedded in paraffin, and 10 μm sections were cut and stained with hematoxylin/eosin. Per lung, 7 sets of three consecutive sections were collected, separated by 140 μm. The sections were randomized and coded, and the total number of metastatic foci counted.
To test directly whether targeting activated integrin αvβ3 with the ligand mimetic antibodies Bc-12 and-15 affects target organ colonization by circulating metastatic breast cancer cells, 1×10^5 BMS human breast cancer cells were injected intravenously into female C.B-17 SCID mice, together with 50 μg sterile, endotoxin free preparations of Bc-12 or Bc-15 (n=8-10 mice per group). At an average blood volume of 2 ml per mouse, this provides an initial scFv concentration of 1 μM. The clearance time for scFv antibody fragments in the circulation is less than 1 h. Kortt et al., Biomol. Eng, 18: 95-108, 2001. Tumor cells may remain in the circulation for several days. Therefore, scFv antibody injections (50 μg bolus doses, i.v.) were repeated on the second, third and fourth day. […] After 32 days, the mice were euthanized, dissected and analyzed by gross examination. […] The lungs were excised, fixed, and metastatic foci counted at the lung surface. Each of the control treated mice had tumor foci on their lungs (range: 8 to 68 foci per lung). In stark contrast, only two animals in the Bc-12 treated group, and 1 animal in the Bc-15 treated group had one visible nodule at their lung surface (FIG. 5A).
Per lung, six sets of three consecutive sections, separated by 140 μm, were collected. The sections were randomized and coded, and the total number of metastatic foci counted. All control animals had metastases in their lung tissues (range: 7 to 48 counts per lung), and those were of considerable size (FIG. 5B top image). […]

T1 sequence (P06756 31-889 limits assumed): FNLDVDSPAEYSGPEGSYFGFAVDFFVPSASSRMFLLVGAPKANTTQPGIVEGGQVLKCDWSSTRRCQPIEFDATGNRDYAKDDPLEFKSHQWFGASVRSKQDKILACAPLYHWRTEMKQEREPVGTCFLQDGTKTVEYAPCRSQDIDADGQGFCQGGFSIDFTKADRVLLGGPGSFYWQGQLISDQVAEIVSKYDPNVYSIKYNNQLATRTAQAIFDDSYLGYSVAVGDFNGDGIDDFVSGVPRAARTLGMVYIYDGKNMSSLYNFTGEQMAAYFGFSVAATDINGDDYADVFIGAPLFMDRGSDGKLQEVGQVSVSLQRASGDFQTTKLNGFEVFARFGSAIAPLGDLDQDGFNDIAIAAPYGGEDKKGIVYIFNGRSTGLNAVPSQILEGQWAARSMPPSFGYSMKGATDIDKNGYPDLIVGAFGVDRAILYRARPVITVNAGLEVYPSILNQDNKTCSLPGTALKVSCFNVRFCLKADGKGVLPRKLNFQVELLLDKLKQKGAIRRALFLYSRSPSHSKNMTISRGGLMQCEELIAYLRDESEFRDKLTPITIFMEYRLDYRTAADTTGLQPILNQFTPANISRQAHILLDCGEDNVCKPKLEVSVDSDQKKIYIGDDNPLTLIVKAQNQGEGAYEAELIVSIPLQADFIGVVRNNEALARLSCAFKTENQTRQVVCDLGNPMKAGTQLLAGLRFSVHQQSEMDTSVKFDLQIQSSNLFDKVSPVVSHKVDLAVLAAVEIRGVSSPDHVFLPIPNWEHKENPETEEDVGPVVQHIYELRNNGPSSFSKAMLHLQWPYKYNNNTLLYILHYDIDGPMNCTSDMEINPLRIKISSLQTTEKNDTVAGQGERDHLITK
T1 sequence (P06756 891-1048 partner limits assumed): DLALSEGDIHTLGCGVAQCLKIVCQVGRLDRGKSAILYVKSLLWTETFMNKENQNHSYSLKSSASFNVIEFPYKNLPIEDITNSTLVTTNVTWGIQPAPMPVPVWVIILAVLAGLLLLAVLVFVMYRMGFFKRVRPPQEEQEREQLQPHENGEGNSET
T1 sequence (P05106 27-788): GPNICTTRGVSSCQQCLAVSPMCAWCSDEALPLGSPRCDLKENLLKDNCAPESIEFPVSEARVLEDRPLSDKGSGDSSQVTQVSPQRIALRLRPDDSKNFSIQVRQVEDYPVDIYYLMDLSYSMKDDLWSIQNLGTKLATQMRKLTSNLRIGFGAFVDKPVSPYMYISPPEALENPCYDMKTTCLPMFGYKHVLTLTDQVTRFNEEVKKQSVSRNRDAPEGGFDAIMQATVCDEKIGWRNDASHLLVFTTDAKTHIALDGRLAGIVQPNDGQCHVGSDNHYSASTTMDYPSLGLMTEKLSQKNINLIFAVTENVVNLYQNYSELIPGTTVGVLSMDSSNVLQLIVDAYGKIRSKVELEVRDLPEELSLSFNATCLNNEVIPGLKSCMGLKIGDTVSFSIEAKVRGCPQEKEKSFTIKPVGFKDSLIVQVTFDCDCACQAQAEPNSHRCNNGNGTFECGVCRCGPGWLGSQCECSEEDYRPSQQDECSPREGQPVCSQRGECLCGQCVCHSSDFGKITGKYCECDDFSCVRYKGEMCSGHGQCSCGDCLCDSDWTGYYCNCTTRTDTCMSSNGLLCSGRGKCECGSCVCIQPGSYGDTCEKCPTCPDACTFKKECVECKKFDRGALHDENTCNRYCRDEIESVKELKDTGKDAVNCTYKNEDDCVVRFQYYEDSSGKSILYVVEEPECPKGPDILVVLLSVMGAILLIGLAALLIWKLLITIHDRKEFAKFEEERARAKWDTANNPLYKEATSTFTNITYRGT

B1: Bc-12: patient derived human scFv antibody against activated αvβ3 with RGD motif in CDR-H3; cDNA ATCC PTA-6303 (protein)
scFv: MAQVQLVQSGAEVKKPGASVKVSCKASGYTFSNYGITWVRQAPGQGLEWMGWINNGNTHYAQKFQGRVTMTTDTSTSTAYMELRSLRSDDTAVYYCARDPRGDDEPYWGQGTLVTVSSGGGGSGGGGSGGGGSEIVLTQSPLSLPVTLGQPASISCRSSQNLVYSDGNTYLSWFQQRPGQSPRRLIYKVSNRDSGVPDRFSGSGSGTDFTLKISRVEAEDIGVYYCMQGTHWPPRTFGQGTKVEIKRGLGGLVDYKDDDDK
B1 gave a half maximal binding in data set [1] of 1 µg/mL. Also, the EC50 in data set [1] (read-out: half maximal binding) was found to be 40 nM. Moreover, the “health status during the experiment” value in data set [2] (50 μg i.v. days 1-4, 32 days) was “appeared healthy”. The “number of lung surface metastases versus PBS control” value in data set [2] (50 μg i.v. days 1-4, day 32, P<0.001 Kruskal Wallis) was “significantly fewer metastases”. In addition, the “number of metastases in lung sections versus PBS control” value in data set [2] (P<0.005 Kruskal Wallis) is “significantly fewer detectable metastases”. Moreover, the “animals with one visible nodule at lung surface” value in data set [2] (SCID mice, 50 μg i.v. days 1-4, day 32, n=8-10 per group, controls 8 to 68 foci per lung) is on record as “two”. The “gross examination at dissection” value in data set [2] (day 32) is on record as “No obvious abnormalities”. Further, in data set [2] (histological sections, day 32, all controls positive), the “mice with microscopically detectable metastases in lung tissue” value is given as 3 of 10.
